Reference: patent publication US7267978, “Chimeric transcriptional regulatory element compositions and methods for increasing prostate-targeted gene expression” (The Regents of the University of California)

Legend:
[1] = biological target: Androgen receptor full length (fAR) (UniProt P10275); experiment: footprint; conditions: 60% protection at 14 nM; cooperative, within enhancer fragment
[2] = biological target: Androgen receptor DNA-binding domain (ARDBD, aa 549-650) (Homo sapiens) (UniProt P10275); experiment: footprint; conditions: 75% occupancy at 1.4 uM
[3] = biological target: T1, Androgen receptor DNA-binding domain (ARDBD, aa 549-650) (Homo sapiens, UniProt P10275 P10275:550-651); experiment: affinity column; retained at 0.5 M KCl, eluted at 0.8 M KCl; conditions: tags: N-terminal His6, C-terminal heart muscle kinase site; E. coli; chain copies: 2; label: biotin
Experimental: The *Escherichia coli* strain BL21(DE3) was transformed with pET11dHis_6ARDBD. 0.1 liter of cells was grown to an $A600$ of 0.6 and induced with 0.5 mM isopropyl-1-thio-β-D-galactopyranoside and 10 μM ZnCl_2 for 3 h. After harvesting, cells were resuspended in 5 ml of Buffer A (20 mM HEPES, pH 7.9, 20% glycerol, 10 μM ZnCl_2, 0.5 mM phenylmethylsulfonyl fluoride) containing 0.1 M KCl and lysed by sonication. The supernatant was incubated with 1.5 ml of Ni-NTA-agarose (Qiagen) resin in batch, rocked gently for 30 min at 4° C., and then loaded on to a small Bio-Rad Econo-column. After successively washing the resin with 15 ml of Buffer A containing 0.1 M KCl, and 15 ml of Buffer A containing 0.1 M KCl and 20 mM imidazole, ARDBD was eluted with Buffer A containing 0.1 M KCl and 150 mM imidazole. […]

[4] = biological target: T1, Androgen receptor DNA-binding domain …; experiment: footprint; lower affinity than ARE III; conditions: tags: N-terminal His6, C-terminal heart muscle kinase site; E. coli; chain copies: 2
Experimental: The binding reactions for DNase I footprinting were as described previously (Chi et al., 1995). Indicated amounts of recombinant AR DNA binding domain (ARDBD), FLAG-tagged AR, and crude nuclear extracts from f-LNCaP cells were incubated in 13 μl of buffer containing 12.5 mM HEPES, pH 7.9, 12.5% glycerol, 5 mM MgCl_2, 70 mM KCl, 0.2 mM EDTA, 60 mM mercaptoethanol, 0.5 mg/ml bovine serum albumin, and 200 ng of poly(dG-dC). After 45 min at 30° C., DNase I was added to the reactions. The cleavage reactions were terminated after 1 min by addition of 100 μl of stop buffer containing 400 mM sodium acetate, pH 5.2, 0.2% SDS, 10 mM EDTA, 50 μg/ml yeast tRNA, and 100 μg/ml proteinase K. The mixtures were incubated at 50° C. for 15 min, extracted with phenol/chloroform, and the products precipitated with ethanol. Precipitates were dissolved in formamide loading buffer and analyzed on 8% polyacrylamide/urea sequencing gels. The cleavage ladders were visualized by exposure to XAR-5 film or by PhosphorImager analysis.
A ^32P-labeled PCR™ fragment from −4309 to −4011 of the enhancer was subjected to DNase I footprinting studies. […] A weak footprint was also noticed below site V that had not been detected with ARDBD in earlier experiments.

Sequence of Androgen receptor full length (fAR) (P10275 whole entry, the tested form may be a part): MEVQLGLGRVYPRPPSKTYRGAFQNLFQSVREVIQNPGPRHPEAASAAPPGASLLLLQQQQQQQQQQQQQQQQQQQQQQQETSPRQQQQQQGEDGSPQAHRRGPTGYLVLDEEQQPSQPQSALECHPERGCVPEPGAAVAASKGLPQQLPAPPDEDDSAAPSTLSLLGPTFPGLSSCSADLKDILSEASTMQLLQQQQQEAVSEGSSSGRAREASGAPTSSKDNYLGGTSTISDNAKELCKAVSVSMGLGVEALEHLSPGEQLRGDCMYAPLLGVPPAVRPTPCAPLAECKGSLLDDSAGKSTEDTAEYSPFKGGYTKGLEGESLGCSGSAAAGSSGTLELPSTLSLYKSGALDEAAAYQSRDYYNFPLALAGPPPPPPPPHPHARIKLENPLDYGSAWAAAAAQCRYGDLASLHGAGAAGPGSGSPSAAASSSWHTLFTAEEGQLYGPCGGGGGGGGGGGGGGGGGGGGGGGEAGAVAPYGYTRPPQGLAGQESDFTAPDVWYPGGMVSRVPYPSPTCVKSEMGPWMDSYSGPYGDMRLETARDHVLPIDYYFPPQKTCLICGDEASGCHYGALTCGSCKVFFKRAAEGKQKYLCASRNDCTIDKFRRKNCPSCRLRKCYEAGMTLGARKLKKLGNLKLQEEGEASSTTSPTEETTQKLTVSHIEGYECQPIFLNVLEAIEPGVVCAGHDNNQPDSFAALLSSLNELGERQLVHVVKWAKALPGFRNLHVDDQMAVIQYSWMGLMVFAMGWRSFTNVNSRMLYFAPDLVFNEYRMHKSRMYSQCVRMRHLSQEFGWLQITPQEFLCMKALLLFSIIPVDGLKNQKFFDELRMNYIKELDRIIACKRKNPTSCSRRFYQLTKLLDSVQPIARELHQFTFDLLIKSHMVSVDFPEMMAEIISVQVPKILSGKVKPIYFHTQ
T1 sequence (P10275 550-651, one chain of several): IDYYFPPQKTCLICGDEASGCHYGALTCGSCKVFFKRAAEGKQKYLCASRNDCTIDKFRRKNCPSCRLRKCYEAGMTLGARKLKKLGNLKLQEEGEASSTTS
Sequence of Androgen receptor DNA-binding domain (ARDBD, aa 549-650) (Homo sapiens) (P10275 550-651): as the sequence (P10275 550-651, one chain of several) above

PSA enhancer ARE IV
K half [1]: < 14 nM

PSA enhancer ARE V
K half [2]: < 1400 nM | K half [1]: < 14 nM

B1: biotinylated ARE affinity oligonucleotide (dsDNA)
DNA 1: TTTCCTTGCAGTACAGCATGTTCTAGC
DNA 2: GCTAGAACATGCTGTACTGCAAGGAAA
binding result [3]: binds

B2: PSA enhancer ARE VI (dsDNA)
DNA 1: GGATGCTGTGCACAC
DNA 2: GTGTGCACAGCATCC
binding result [4]: binds
